# System: MCF7 cells
# Test: PDS co-culture of MCF7 cells with activated T-lymphocytes, with or without PD1 blockade: viability of MCF7 cells
# Type: cell-based, human
# Details: for % of viable MCF7 cells after 48 hours of co-culture with T-lymphocytes: MCF7 + TA+ pre-incubated with Pembr 100 μg/mL 30 min, relative to only-MCF7 control, average ± SD of 3 technical replicates
# Protocol: FIG. 25. PD1 blocking antibody increases the killing capacity of the T-lymphocytes in PDS-dependent manner. T-lymphocytes were activated 20 hours by exposition to CD3/CD28 Dynabeads. […] Then, the co-cultures were incubated for 48 hours. Controls including only MCF7 cells or T-lymphocytes, and 2D cultures were included. (A) Surface expression of PD1 by T-lymphocytes analyzed by FACS. (B) Graph showing the % of viable MCF7 cells after 48 hours of co-culture with T-lymphocytes in 5 different PDSs. Data are relative to their own control with only MCF7 cells and show average±SD of 3 technical replicates.
# In addition, in FIG. 13, it is shown how differential expression of PDL1 by MCF7 cells is triggered by different breast cancer PDSs. […] First, T-lymphocytes were activated 20 hours by exposure to CD3/CD28 Dynabeads. […] The blockade of PD1 protein in the T-lymphocytes was confirmed by FACS (FIG. 25A). The T-lymphocytes, with or without PD1 blockade (Pembr) were then added to the PDS cultures, in which the MCF7 cells had been growing for 21 days. The co-cultures were incubated for 48 hours. Control samples included samples with MCF7 cells or T-lymphocytes on their own, and 2D cultures.
substance,measurement,setting,value
Pembrolizumab,% of viable MCF7 cells after 48 hours of co-culture with T-lymphocytes,2D MCF7 culture,5.5 ± 0.6%
same,% of viable MCF7 cells after 48 hours of co-culture with T-lymphocytes,PDS13,31.2 ± 1.7%
same,killing efficacy of the T-lymphocytes after Pembrolizumab treatment,"PDS13 and PDS17, compared to without this treatment",no changes
same,killing effect of the T-lymphocytes after incubation with Pembrolizumab,"PDS14, PDS15 and PDS16, compared to T-lymphocytes without this treatment",higher
same,% of viable MCF7 cells after 48 hours of co-culture with T-lymphocytes,PDS14,12.8 ± 2.3%
same,% of viable MCF7 cells after 48 hours of co-culture with T-lymphocytes,PDS15,9.5 ± 0.6%
same,% of viable MCF7 cells after 48 hours of co-culture with T-lymphocytes,PDS16,9.1 ± 2.5%
same,% of viable MCF7 cells after 48 hours of co-culture with T-lymphocytes,PDS17,19.2 ± 4.3%
same,killing capacity of the T-lymphocytes,"in PDS-dependent manner, FIG. 25 legend",increases
